Laboratory results reported in publication PMC11019746 (ACS Pharmacology & Translational Science, 2024).
Values belong to the molecule of their own block, whether it stands above or below them.

Assays:
hY4R [1] = target: T1, hY4R (Homo sapiens, UniProt P50391); assay: Y4R Ca2+ aequorin assay (CHO-hY4R-Gqi5-mtAEQ cells); format: cell-based; parameters: expressed in transfected cells; host or cells: CHO (co-expressing Gqi5 and mitochondrially targeted aequorin)
Procedure: The assay was performed with live CHO-hY4R-Gqi5-mtAEQ cells as previously described (used buffer: buffer III). Measurements were carried out on a Tecan Infinite Lumi plate reader. Data analysis was performed as reported using GraphPad Prism 5 for the calculation of the area under the curve. […] Efficacies Emax correspond to the upper plateaus of the normalized concentration–response curves.

Y4R = Y4R (Homo sapiens, UniProt P50391); assay: Y4R miniGsi recruitment assay (HEK293T-NlucN-mGsi/Y4R-NlucC cells); format: cell-based; parameters: expressed in transfected cells; host or cells: HEK293T; conditions: read-out: miniGsi recruitment Emax ± SEM; note: relative to 1 µM hPP (100%)
Procedure: Furimazine was used as nanoluciferase substrate. The original stock was diluted 1:1000 in L15-HEPES to obtain the feed solution for the assay. Data analysis was performed based on the areas under the curves (time window: 45 min starting with the agonist addition) using GraphPad Prism 5. […] Efficacies Emax correspond to the upper plateaus of the normalized concentration–response curves.

hY2R = target: T2, hY2R (Homo sapiens, UniProt P49146); assay: Y2R radioligand competition binding, whole CHO-hY2R cells, [3H]propionyl-pNPY; conditions: read-out: pKi ± SEM hY2R (converted)
T2 construct: host or cells: CHO
T2 sequence (P49146 1-381): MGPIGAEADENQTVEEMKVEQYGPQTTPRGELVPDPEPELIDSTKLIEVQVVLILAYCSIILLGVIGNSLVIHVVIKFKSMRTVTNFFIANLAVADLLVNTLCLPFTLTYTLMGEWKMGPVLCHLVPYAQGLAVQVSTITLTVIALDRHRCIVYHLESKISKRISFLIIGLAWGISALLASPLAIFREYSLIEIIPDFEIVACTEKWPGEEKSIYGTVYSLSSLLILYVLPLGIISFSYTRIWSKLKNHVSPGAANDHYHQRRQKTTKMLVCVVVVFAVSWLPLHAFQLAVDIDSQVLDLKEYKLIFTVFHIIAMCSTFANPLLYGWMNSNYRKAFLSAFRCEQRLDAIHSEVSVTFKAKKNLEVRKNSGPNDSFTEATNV
Procedure: (§1) All radioligand binding assays were performed at intact Y receptor expressing cells at 23 ± 2 °C.

hY4R [2] = target: T1, hY4R; assay: Y4R radioligand competition binding, whole CHO-hY4R-Gqi5-mtAEQ cells, [3H]UR-KK200; parameters: expressed in transfected cells; host or cells: CHO (co-expressing Gqi5 and mitochondrially targeted aequorin); conditions: [3H]UR-KK200 c = 1 nM, read-out: pKi ± SEM hY4R (converted)
Procedure: as §1
(§2) (logarithmic form in the case of pKi values).

hY5R = target: T3, hY5R (Homo sapiens, UniProt Q15761); assay: Y5R radioligand competition binding, whole HEC-1B-hY5R cells, [3H]propionyl-pNPY; conditions: [3H]propionyl-pNPY c = 5 nM, read-out: pKi ± SEM hY5R (converted)
T3 construct: expressed in transfected cells; host or cells: HEC-1B (human endometrial cancer)
T3 sequence (Q15761 1-445): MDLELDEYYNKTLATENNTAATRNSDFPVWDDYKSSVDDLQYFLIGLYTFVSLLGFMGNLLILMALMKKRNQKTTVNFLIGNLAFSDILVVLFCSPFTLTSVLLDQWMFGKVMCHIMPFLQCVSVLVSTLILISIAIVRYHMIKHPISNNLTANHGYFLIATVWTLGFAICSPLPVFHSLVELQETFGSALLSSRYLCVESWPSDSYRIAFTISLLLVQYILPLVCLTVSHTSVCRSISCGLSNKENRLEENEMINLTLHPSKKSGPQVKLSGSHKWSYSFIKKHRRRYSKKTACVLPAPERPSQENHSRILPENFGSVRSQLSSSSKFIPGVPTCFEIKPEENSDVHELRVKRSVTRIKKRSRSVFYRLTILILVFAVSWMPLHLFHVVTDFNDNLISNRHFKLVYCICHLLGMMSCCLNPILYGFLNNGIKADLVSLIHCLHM
Procedure: as §1, §2

hY1R = target: T4, hY1R (Homo sapiens, UniProt P25929); assay: Y1R radioligand competition binding, whole SK-N-MC cells, [3H]UR-MK299; conditions: SK-N-MC neuroblastoma cells, [3H]UR-MK299 c = […]; read-out: pKi ± SEM hY1R (converted)
T4 construct: host or cells: SK-N-MC neuroblastoma cells
T4 sequence (P25929 1-384): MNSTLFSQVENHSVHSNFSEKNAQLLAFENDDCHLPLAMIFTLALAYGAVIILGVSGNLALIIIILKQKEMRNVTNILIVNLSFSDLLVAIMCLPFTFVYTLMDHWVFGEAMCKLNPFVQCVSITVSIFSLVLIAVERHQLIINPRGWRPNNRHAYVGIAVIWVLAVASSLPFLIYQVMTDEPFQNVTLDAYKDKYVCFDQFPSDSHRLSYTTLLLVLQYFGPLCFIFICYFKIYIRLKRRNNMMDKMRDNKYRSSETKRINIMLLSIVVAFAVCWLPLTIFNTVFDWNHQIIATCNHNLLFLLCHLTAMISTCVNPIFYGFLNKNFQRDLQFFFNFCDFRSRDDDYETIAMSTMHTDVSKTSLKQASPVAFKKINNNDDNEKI
Procedure: as §1
Competition binding assays at Y1R-expressing SK-N-MC neuroblastoma cells were performed as previously described using [^3H]UR-MK299 as radioligand (concentration: 0.15 nM).[33] […] (logarithmic form in the case of pKi values).

[3] = target: 5-TAMRA-[K18,Nle17,30]hPP (2) (Homo sapiens) (UniProt P01298); conditions: cited from earlier work
[4] = target: Sulfo-Cy5-[K4]hPP (Homo sapiens) (UniProt P01298); conditions: cited from earlier work
[5] = target: hY4R-Nluc(intraECL2) (human) (UniProt P50391)
[6] = target: human neuropeptide Y Y5 receptor (human) (UniProt Q15761); assay: radioligand binding; competition with [^3H]propionyl-pNPY (5 nM) at intact HEC-1B-hY5R cells, 23 ± 2 °C, buffer II (150 mM NaCl)
[7] = target: T5, human neuropeptide Y Y4 receptor (wild-type, CHO-hY4R-Gqi5-mtAEQ cells) (human, UniProt P50391 1-375); assay: radioligand binding; competition with [^3H]UR-KK200 (1.0 nM) at intact CHO-hY4R-Gqi5-mtAEQ cells, 23 ± 2 °C, buffer I (sodium-free); conditions: one partner purified
T5 construct: The cells also express Gqi5 and mitochondrially targeted aequorin; also called wild-type Y4R

[8] = target: human neuropeptide Y Y1 receptor (human) (UniProt P25929); assay: radioligand binding; competition with [^3H]UR-MK299 ([…]) at intact SK-N-MC cells, 23 ± 2 °C, buffer II (150 mM NaCl)
[9] = target: T5, human neuropeptide Y Y4 receptor …; assay: cell-based or functional assay
[10] = target: T6, human neuropeptide Y Y2 receptor (human, UniProt P49146 1-381); assay: radioligand binding; competition with [^3H]propionyl-pNPY (0.5 nM) at intact CHO-hY2R cells, 23 ± 2 °C, buffer I (sodium-free); conditions: one partner purified
T6 construct: also called hY2R; source: CHO-hY2R cells (from PerkinElmer), intact cells
T6 sequence (looked up): T2 sequence (P49146 1-381)

Molecule: Cc1cc(/C=C/C=C/c2ccc(N(C)C)cc2)cc(C)[n+]1CCCn1cc(CCCCNC(=O)N=C(N)NCCC[C@@H]2NC(=O)CCC(=O)NCCCCNC(=O)N=C(N)NCCC[C@@H](C(=O)N[C@@H](CC(C)C)C(=O)N[C@@H](CCCNC(=N)N)C(=O)N[C@@H](Cc3ccc(O)cc3)C(N)=O)NC(=O)[C@H](Cc3ccc(O)cc3)NC2=O)nn1 [Compound 19]
EC50 (hY4R [1]; CHO-hY4R-Gqi5-mtAEQ cells, agonist mode, read-out: Ca2+-aequorin pEC50 ± SEM (converted)): 56.2 nM
Emax (hY4R [1]; read-out: Ca2+-aequorin Emax ± SEM): 64 ± 2%
Emax (Y4R): 43 ± 1%
Ki (hY2R): > 1000 nM
Ki (hY4R [2]): 0.603 nM
Ki (hY5R): > 1000 nM
Ki (hY1R): > 1000 nM

Molecule: Y4 receptor (from UniProt P50391)
Kd [3]: 26 nM
Kd [4]: 5.6 nM

Continued, values first:

pKi [5]: 7.7
Molecule: human pancreatic polypeptide (from UniProt P01298 30-65)

pKi [6]: < 5.5
Ki [7]: 0.42 nM
pKi [8]: < 5
EC50, miniGsi recruitment assay (HEK293T-NlucN-mGsi/Y4R-NlucC cells) [9]: 73 nM
pKi [10]: < 5
B1: cyclic peptide 11 (alkyne-functionalized precursor peptide) (peptide)
peptide: RYRLRY
modifications: N^α-succinyl; N^ω-[hex-5-ynylaminocarbonyl]-Arg at position 1; N^ω-[(aminobutyl)aminocarbonyl]-Arg at position 3; cyclized via the succinyl carboxylic group and the primary amino group of the carbamoylated arginine in position 3; C-terminal amide
notes: printed in three-letter code for the linear precursor 10: N^α-succinyl-N^ω[hex-5-ynylaminocarbonyl]-Arg-Tyr-N^ω-[(aminobutyl)aminocarbonyl]Arg-Leu-Arg-Tyr-amide; 11 is its cyclized form; source: synthetic peptide (SPPS of linear peptide 10, cyclization in solution, preparative HPLC)
